Legend:
[1] = biological target: EGF receptor on Swiss mouse 3T3 cells (mouse (endogenous in Swiss 3T3)) (UniProt Q01279); assay: radioligand binding
[2] = biological target: PDGF receptor on Swiss mouse 3T3 cells (mouse (endogenous in Swiss 3T3)) (UniProt P05622); assay: radioligand binding
Sequence of UniProt P05622 (P05622 32-1098): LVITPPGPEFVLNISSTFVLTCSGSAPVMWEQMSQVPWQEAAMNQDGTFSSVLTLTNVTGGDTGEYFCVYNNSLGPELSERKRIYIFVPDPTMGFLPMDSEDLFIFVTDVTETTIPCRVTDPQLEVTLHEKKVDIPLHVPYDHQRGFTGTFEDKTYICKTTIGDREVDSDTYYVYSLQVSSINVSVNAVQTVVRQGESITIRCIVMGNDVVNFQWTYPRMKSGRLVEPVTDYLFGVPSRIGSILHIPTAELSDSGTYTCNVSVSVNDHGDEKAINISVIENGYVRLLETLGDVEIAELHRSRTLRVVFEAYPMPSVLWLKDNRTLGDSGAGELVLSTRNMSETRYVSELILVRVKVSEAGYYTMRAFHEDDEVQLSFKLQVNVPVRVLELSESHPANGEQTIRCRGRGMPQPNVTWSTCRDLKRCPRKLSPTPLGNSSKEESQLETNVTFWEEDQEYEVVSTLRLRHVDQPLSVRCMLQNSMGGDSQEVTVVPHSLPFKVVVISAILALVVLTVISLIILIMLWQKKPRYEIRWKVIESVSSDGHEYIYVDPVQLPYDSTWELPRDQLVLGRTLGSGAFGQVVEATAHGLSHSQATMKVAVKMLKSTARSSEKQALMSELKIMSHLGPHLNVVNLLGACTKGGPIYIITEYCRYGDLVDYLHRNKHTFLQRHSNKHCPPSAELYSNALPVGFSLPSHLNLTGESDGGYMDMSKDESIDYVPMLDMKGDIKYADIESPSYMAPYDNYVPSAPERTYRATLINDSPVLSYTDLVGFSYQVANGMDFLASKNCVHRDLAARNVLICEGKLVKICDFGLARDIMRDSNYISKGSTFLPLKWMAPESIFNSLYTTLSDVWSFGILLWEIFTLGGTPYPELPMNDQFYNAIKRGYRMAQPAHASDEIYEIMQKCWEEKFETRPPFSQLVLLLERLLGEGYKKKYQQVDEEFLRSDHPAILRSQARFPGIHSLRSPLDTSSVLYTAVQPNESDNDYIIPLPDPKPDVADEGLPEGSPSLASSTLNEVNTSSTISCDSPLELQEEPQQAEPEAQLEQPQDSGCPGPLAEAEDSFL

| Substance | % of prebound ligand removed by 3 min 0.1% acetic acid [1] [%] | EC50 [1] [nM] | binding to acid-treated cultures, % of binding to untreated cultures [1] [%] | decrease in 125I-EGF binding after preincubation with 2 ng/ml PDGF [1] [%] | half-maximal binding after preincubation with 0.5 ng/ml PDGF [1] [nM] | half-maximal binding after preincubation with 10 ng/ml PDGF [1] [nM] | binding to acid-treated cultures, % of binding to untreated cultures [2] [%] |
| --- | --- | --- | --- | --- | --- | --- | --- |
| 125I-epidermal growth factor (ligand) | 78 | 1.3 | 101 | 60 | 1.6 | 2 |  |
| 125I-platelet-derived growth factor (from UniProt P04085 87-211; P01127 82-190) (ligand) |  |  |  |  |  |  | 103 |

Source: PMC2112417
